Source: PMC13408441, “Molecular regulation and physiological role of GOLPH3-mediated Golgi retention” (Nature Communications, 2026)
Positions count from the first letter of the chain named. Names may count otherwise. “Also recorded” adds a separate entry of the source.

B1: D247A: GOLPH3 mutant D247A; recombinant in biophysics, transfected construct in cells (protein, UniProt Q9H4A6 1-298, looked up, variant D247A)
Golgi phosphoprotein 3: MTSLTQRSSGLVQRRTEASRNAADKERAAGGGAGSSEDDAQSRRDEQDDDDKGDSKETRLTLMEEVLLLGLKDREGYTSFWNDCISSGLRGCMLIELALRGRLQLEACGMRRKSLLTRKVICKSDAPTGDVLLDEALKHVKETQPPETVQNWIELLSGETWNPLKLHYQLRNVRERLAKNLVEKGVLTTEKQNFLLFDMTTHPLTNNNIKQRLIKKVQEAVLDKWVNDPHRMDRRLLALIYLAHASAVLENAFAPLLDEQYDLATKRVRQLLDLDPEVECLKANTNEVLWAVVAAFTK
B2: C84A: GOLPH3 S-acylation mutant C84A, transfected construct (protein, UniProt Q9H4A6 1-298, looked up, variant C84A)
Golgi phosphoprotein 3: B1 Golgi phosphoprotein 3 with C84A, A247D
B3: D247R/D258R/D262R: recombinant GOLPH3 triple mutant D247R/D258R/D262R (protein, UniProt Q9H4A6 1-298, looked up, variant D247R D258R D262R)
Golgi phosphoprotein 3: B1 Golgi phosphoprotein 3 with A247R, D258R, D262R
B4: R90L: GOLPH3 mutant defective in PtdIns(4)P binding (protein, UniProt Q9H4A6 1-298, looked up, variant R90L)
Golgi phosphoprotein 3: B1 Golgi phosphoprotein 3 with R90L, A247D
B5: C122A: GOLPH3 S-acylation mutant C122A, transfected construct (protein, UniProt Q9H4A6 1-298, looked up, variant C122A)
Golgi phosphoprotein 3: B1 Golgi phosphoprotein 3 with C122A, A247D
B6: GOLPH3-C108A/C122A: GOLPH3 double S-acylation mutant C108A/C122A, transfected construct (protein, UniProt Q9H4A6 1-298, looked up, variant C108A C122A)
Golgi phosphoprotein 3: B1 Golgi phosphoprotein 3 with C108A, C122A, A247D
B7: D247A/D258A/D262A: GOLPH3 triple mutant D247A/D258A/D262A; recombinant in biophysics, transfected in cells (protein, UniProt Q9H4A6 1-298, looked up, variant D247A D258A D262A)
Golgi phosphoprotein 3: B1 Golgi phosphoprotein 3 with D258A, D262A
B8: C108A: GOLPH3 S-acylation mutant C108A, transfected construct (protein, UniProt Q9H4A6 1-298, looked up, variant C108A)
Golgi phosphoprotein 3: B1 Golgi phosphoprotein 3 with C108A, A247D
B9: D247R: recombinant GOLPH3 mutant D247R (protein, UniProt Q9H4A6 1-298, looked up, variant D247R)
Golgi phosphoprotein 3: B1 Golgi phosphoprotein 3 with A247R

Tests used:
[1] = CD secondary structure of GOLPH3 proteins (BestSel fits); format: physicochemical, human; settings: 10 μM, 100 mM NaCl, 50 mM Tris pH 7.4, 1 mM TCEP, 20 °C
Procedure: (§1) Supplemental Material for Theodoropoulou, Nasrallah, et al 2026
Isothermal titration calorimetry […]
(§2) Circular Dichroism Spectroscopy
(§3) Circular Dichroism Spectra of GOLPH3 proteins (at 10 μM in 100 mM NaCl, 50 mM Tris pH 7.4 and 1 mM TCEP) were collected with a Chirascan V100 (AppliedPhotophysics), using a 1 mm path length cuvette, at 20 °C, in the 200-260 nm range. Thermal denaturation experiments […]
(§4) every 1 °C, with a temperature ramp speed of 1 °C/min and an equilibration time of […]
(§5) Table S2: Fits of CD spectra to fractions of secondary structure for Golph3 WT and various mutants of it, carried out with the BestSel server

[2] = tested on: LCS; assay: ITC of GOLPH3 mutants with LCS peptide; format: binding; settings: 25 °C, pH 8.0, relative to non-mutated GOLPH3
Procedure: as §1
(§6) Isothermal titration calorimetry
(§7) Isothermal titration calorimetry (ITC) experiments were performed on a MicroCal PEAQ-ITC (Malvern Panalytical), with GOLPH3 variants being in a buffer containing 250 mM NaCl, 50 mM Tris pH 8.0 and 1 mM TCEP. LCS peptides were synthesised and delivered as lyophilised powder (Genscript). The peptides were dissolved in the protein buffer and their concentrations were calculated based upon their absorbance at 280 nm and their corresponding molar extinction coefficient. Experiments consisted of titrations of a single 0.4 µL injection followed […]
(§8) GOLPH3 proteins at a 100 μM concentration. Experiments were performed at 25 °C in triplicate (n = 3), with injection duration of 4 s, injection spacing of 150 s, stir speed of 750 rpm, and reference power of 7 μcal/s. Data were processed and plotted using MicroCal PEAQ‐ITC Analysis Software and fitted to a one‐site binding model.
as §2, §3, §4, §5

[3] = tested on: GOLPH3-KO HeLa cells; assay: Targeted LC-MS/MS of glycosphingolipids in GOLPH3-KO HeLa expressing GOLPH3 mutants; format: cell-based, human
[4] = tested on: GOLPH3-KO HeLa cells; assay: 3H-palmitate metabolic labeling of GOLPH3 mutants; format: cell-based, human; settings: 3H-palmitic acid 3 h; for palmitoylation of GOLPH3 mutants: autoradiography after immunoprecipitation
Procedure: To detect palmitoylation, HeLa WT or GOLPH3-KO cells were transfected or not with different GOLPH3 constructs, incubated for 3 h in IM (Glasgow minimal essential medium buffered with 10 mM Hepes, pH 7.4) with 200 mCi/ml ^3H palmitic acid (9,10-^3H(N)) (American Radiolabeled Chemicals, Inc.). The cells were washed and directly lysed for immunoprecipitation with the anti-GOLPH3 rabbit antibody. […] After SDS-PAGE, the gel was incubated in a fixative solution (25% isopropanol, 65% H2O, 10% acetic acid), followed by a 30-min incubation with signal enhancer Amplify NAMP100 (GE Healthcare). […] Quantification of radioactive experiments was quantified using specific screens by autoradiography. The images shown for ^3H-palmitate labeling were however obtained using fluorography (indirect detection of radioactive emission by stimulated light emission from a fluorophore (Amplify) on film).

[5] = tested on: HeLa cells; assay: Immunofluorescence of GOLPH3 Golgi localization; format: cell-based, human; settings: quantitative immunofluorescence
Procedure: as §1
(Sigma, E4382), 5 mL of 1% Phloxine B (Fluka, 28550), 360 mL of 95% ethanol, and 2 mL of glacial acetic acid. Slides were then washed in distilled water, dehydrated, cleared in xylene, and mounted using Eukitt mounting medium (Sigma-Aldrich).
For Alcian Blue staining, sections were deparaffinized, rehydrated, and incubated for 25 minutes at room temperature in 1% Alcian Blue (Sigma-Aldrich, A5268) dissolved in 3% acetic acid (pH 2.5). The solution was filtered prior to use and prepared by dissolving 5 g of Alcian Blue in 500 mL of 3% glacial acetic acid. After staining, slides were washed in running tap water for 5 minutes and briefly rinsed in distilled water. Nuclei were counterstained with 0.1% nuclear fast red (Vector Laboratories, H-3403) for 5 minutes, followed by rinsing, dehydration, clearing, and mounting with Eukitt. Acidic mucopolysaccharides and mucins […]
Immunofluorescence and confocal microscopy
HeLa GOLPH3-KO cells transfected with the different GOLPH3 constructs were plated at approximately 50% confluency post-transfection. Cells were washed with PBS, fixed in 4% paraformaldehyde (PFA) for 20 minutes, washed with PBS, quenched with 50 mM NH4Cl for 10 minutes, and washed again with PBS. Cells were permeabilized with 0.05% saponin in PBS for 5 minutes. Subsequently, cells were washed and blocked with 3% BSA and 0.05% saponin in PBS for 30 minutes. Primary antibodies (anti-GOLPH3 and anti-GM130) and secondary antibodies were diluted in the same buffer. After blocking, coverslips were washed and incubated with primary antibodies overnight at 4 °C, washed in PBS, and incubated for 45 minutes with secondary antibodies. Cells were then washed and stained with Hoechst for nuclear visualization. Finally, coverslips were mounted in Prolong Glass Antifade Mountant.
Images were acquired using a Zeiss LSM 980 Inverted microscope with a 63X objective, a pinhole size of 1 AU and at least 2 line-averaging or alternatively using Oympus Evident FV4000. Super-resolution images were taken using Zeiss LSM980 with Airyscan2 module, with 63×oil-immersion objectives. Images were processed using Fiji (ImageJ). Cis-to-trans Golgi linescans were recorded using the “Color Profiler” plugin (Color_Profiler. jar, https://imagej.nih.gov/ij/plugins/color -profiler.html) in Fiji software.
Forty-eight hours after transfection, cells were harvested by trypsinization, fixed 10 minutes in 4% PFA/PBS, washed, and resuspended in PBS containing 1% BSA.

[6] = CD thermal denaturation of GOLPH3 proteins; format: physicochemical, human; settings: CD at 207 nm, 20 to 95 °C at 1 °C/min, 10 μM protein, 100 mM NaCl, 50 mM Tris pH 7.4, 1 mM TCEP
Procedure: as §1, §6, §7, §8, §2, §3, §4, §5

Molecule	% alpha [1] [%]	% beta parallel [1] [%]	% beta-antiparallel [1] [%]	% others [1] [%]	% turn [1] [%]	binding of GOLPH3 mutants to LCS [2]	Golgi localization of GOLPH3 mutants [5]	further results
B1	36	0	8	44	12	reduced binding		
B2							decreased Golgi localization	promotion of lipid glycosylation [3]: less effective than wild-type GOLPH3 at promoting lipid glycosylation; loss of palmitate labeling ([4]; relative to wild-type GOLPH3): ~ 80%; Golgi localization of GOLPH3 mutants ([5]; listed as C84): reduced Golgi association
B3	38	0	7	40	15	weaken or abrogate binding		Tm / melting temperature [6]: 57 °C
B4							largely abolished Golgi localization	
B5							increased Golgi localization	palmitoylation of GOLPH3 mutants [4]: modest effect
B6								promotion of lipid glycosylation [3]: displays active behavior
B7	40	0	0	47	13			
B8							increased Golgi localization	palmitoylation of GOLPH3 mutants [4]: modest effect
B9	38	0	0	52	10	reduced binding; also recorded: weaken or abrogate binding		Tm / melting temperature [6]: 57 °C
